How the values were obtained:
[1] = biological target: T1, recombinant human FcRn (FcRn alpha-chain with C-terminal BirA 10x-Histidine tag, with beta-2-microglobulin) (human, UniProt P55899 24-297; P61769 21-119); assay: SPR; pH 6.0
[2] = biological target: T1, recombinant human FcRn (FcRn …); assay: SPR; pH 7.4

B1: Fc-MST-HN (IgG1 Fc fragment with M252Y, S254T, T256E, H433K, N434F) (domain or fragment)
chain: DKTHTCPPCPAPELLGGPSVFLFPPKPKDTLYITREPEVTCVVVDVSHEDPEVKFNWYVDGVEVHNAKTKPREEQYNSTYRVVSVLTVLHQDWLNGKEYKCKVSNKALPAPIEKTISKAKGQPREPQVYTLPPSRDELTKNQVSLTCLVKGFYPSDIAVEWESNGQPENNYKTTPPVLDSDGSFFLYSKLTVDKSRWQQGNVFSCSVMHEALKFHYTQKSLSLSP
- Kd [1]: 33 nM
- Kd [2]: 1220 nM
